Experimental data from PMC11870023, “A facile assay for zDHHC palmitoyl transferase activation elucidates effects of mutation and modification” (Journal of Lipid Research, 2025).
Where a chain is given by its changes, count along the chain named. Names and notes keep the numbering of the source.

Legend:
Test in all cases: auto-S-palmitoylation of HEK293 membranes, SDS-PAGE fluorescence normalised to tag Western blot
[1] = substrate: CC(C)(COP(=O)(O)OP(=O)(O)OC[C@H]1O[C@@H](n2cnc3c(N)ncnc32)[C@H](O)[C@@H]1OP(=O)(O)O)[C@@H](O)C(=O)NCCC(=O)NCCSC(=O)CCCCCCCCCCCCCCCNc1ccc([N+](=O)[O-])c2nonc12; assay type: cell-based, Mus musculus; details: pH 7.4, 37 °C, labelled compound, covalent thioester at active-site Cys
[2] = substrate: CC(C)(COP(=O)(O)OP(=O)(O)OC[C@H]1O[C@@H](n2cnc3c(N)ncnc32)[C@H](O)[C@@H]1OP(=O)(O)O)[C@@H](O)C(=O)NCCC(=O)NCCSC(=O)CCCCCCCCCCCCCCCNc1ccc([N+](=O)[O-])c2nonc12; assay type: cell-based, Homo sapiens; details: pH 7.4, 37 °C, 2 min, labelled compound, covalent thioester at active-site Cys
Source text: auto-S-palmitoylation of HEK293 membranes, SDS-PAGE fluorescence normalised to tag Western blot on human zDHHC2 | neither S306 F nor M356I mutation of zDHHC2 within the C-terminal cytoplasmic tail

[3] = substrate: CC(C)(COP(=O)(O)OP(=O)(O)OC[C@H]1O[C@@H](n2cnc3c(N)ncnc32)[C@H](O)[C@@H]1OP(=O)(O)O)[C@@H](O)C(=O)NCCC(=O)NCCSC(=O)CCCCCCCCCCCCCCCNc1ccc([N+](=O)[O-])c2nonc12; assay type: cell-based, Homo sapiens; details: pH 7.4, 37 °C, labelled compound, covalent thioester at active-site Cys
[4] = substrate: CC(C)(COP(=O)(O)OP(=O)(O)OC[C@H]1O[C@@H](n2cnc3c(N)ncnc32)[C@H](O)[C@@H]1OP(=O)(O)O)[C@@H](O)C(=O)NCCC(=O)NCCSC(=O)CCCCCCCCCCCCCCCNc1ccc([N+](=O)[O-])c2nonc12; assay type: biochemical, Mus musculus; details: pH 7.4, 37 °C, 2 min, labelled compound, covalent thioester at active-site Cys134

B1: mouse zDHHC4 (Mus musculus) (protein)
chain: MDFLVLFLFYLAFLLICVVLICIFTKSQRLKAVVLGGAQVCSRVIPQCLQRAVQTLLHQLFHTRHPTFIVLHLLLQGLVYAEYTCEVFGYCRELEFSLPYLLLPYVLLSVNLVFFTLTCAANPGTITKANESFLLQVYKFDDVMFPKNSRCPTCDLRKPARSKHCRLCDRCVHRFDHHCVWVNNCIGAWNTRYFLIYLLTLTASAATIATVTAAFLLRLVTVSDLYQETYLDDVGHFQAVDTVFLIQHLFLAFPRIVFLLGFVIVLSMLLAGYLCFALYLAATNQTTNEWYKGDWAWCQRWPLVAWSPSAEPRIHQNIHSHGFRSNLREIFLPATPSYKKKEK
notes: full length, HA tag kept (pEF-Bos-HA), HEK293 membrane fraction
Km [1]: 0.69 ± 0.13 µM

B2: mouse zDHHC14 (Mus musculus) (protein)
chain: MPPGGGGPMKDCEYSQISTHSSSPMESPHKKKKIAARRKWEVFPGRNKFFCNGRIMMARQTGVFYLTLILILVTSGLFFAFDCRYLAEKITPAIPVVGGILFFFVMGTLLRTSFSDPGVLPRATPDEAADLERQIDIANGTSSGGYRPPPRTKEVVINGQTVKLKYCFTCKIFRPPRASHCSLCDNCVEQFDHHCPWVGNCVGKRNYRFFYMFILSLSFLTVFIFAFVITHVIHRSQQKGFLDALKDSPASVLEAVICFFSVWSIIGLSGFHTYLISSNQTTNEDIKGSWSNKRGKENYNPYSYGNIFTNCCVALCGPISPSLIDRRGYVQPDTPQPAAPSNGITMYGATQSQSDMCDQDQCIQSTKFVLQAAATPLLQSEPSLTSEELHMPGKPGLGTPCASLTLGQPTPPSSMPNLATEATLSDIMPLKDEHGGHQFLTPDEAPSPPRMLGAGSPLAHSRTMHMLGLASQDSLHEDSVRGLVKLSSV
notes: as for B1
Km [1]: 0.98 ± 0.15 µM

B3: mouse zDHHC2 (Mus musculus) (protein)
chain: MAPSGSGGVRRRCRRVLYWIPVVFISLLLGWSYYAYAIQLCIVSMENIGEQVVCLMAYHLLFAMFVWSYWKTIFTLPMNPSKEFHLSYAEKELLEREPRGEAHQEVLRRAAKDLPIYTRTMSGAIRYCDRCQLIKPDRCHHCSVCDKCILKMDHHCPWVNNCVGFSNYKFFLLFLAYSLLYCLFIAATDLQYFIRFWTNGLPDTQAKFHIMFLFFAAAMFSVSLSSLFGYHCWLVSKNKSTLEAFRNPVFRHGTDKNGFSLGFSKNMRQVFGDEKKYWLLPVFSSQGDGCSFPTCLVNQDPEQPSTPAGLNSTVKNPENHQFPAKPLRESQSHLLKDSQTWTESSANPGKGKAGMSNPALTMENET
notes: as for B1
Km [1]: 2.86 ± 0.78 µM

B4: human zDHHC2 (Homo sapiens; S306F) (protein)
chain: MAPSGPGSSARRRCRRVLYWIPVVFITLLLGWSYYAYAIQLCIVSMENTGEQVVCLMAYHLLFAMFVWSYWKTIFTLPMNPSKEFHLSYAEKDLLEREPRGEAHQEVLRRAAKDLPIYTRTMSGAIRYCDRCQLIKPDRCHHCSVCDKCILKMDHHCPWVNNCVGFSNYKFFLLFLAYSLLYCLFIAATDLQYFIKFWTNGLPDTQAKFHIMFLFFAAAMFSVSLSSLFGYHCWLVSKNKSTLEAFRSPVFRHGTDKNGFSLGFSKNMRQVFGDEKKYWLLPIFSSLGDGCSFPTCLVNQDPEQAFTPAGLNSTAKNLENHQFPAKPLRESQSHLLTDSQSWTESSINPGKCKAGMSNPALTMENET
notes: full length, His6-Myc tag kept (pCEpuro-His6-Myc-1), HEK293 membrane fraction
Km [2]: 3.36 ± 0.73 µM

B5: human zDHHC2 (Homo sapiens; M356I) (protein)
chain: B4 chain with F306S, M356I
notes: as for B4
Km [2]: 4.59 ± 0.89 µM

B6: human zDHHC2 (Homo sapiens) (protein)
chain: B4 chain with F306S
notes: as for B4
Km ([3]; 2 min): 4.46 ± 0.49 µM

B7: mouse zDHHC3 (Mus musculus) (protein)
chain: MMLIPTHHFRDIERKPEYLQPEKCAPPPFPGPAGAMWFIRDGCGIACAIVTWFLVLYAEFVVLFVMLVPSRDYAYSIINGIVFNLLAFLALASHCRAMLTDPGAVPKGNATKEFIESLQLKPGQVVYKCPKCCSIKPDRAHHCSVCKRCIRKMDHHCPWVNNCVGENNQKYFVLFTMYIALISLHALIMVGFHFLHCFEEDWTKCSSFSPPTTVILLILLCFEALLFLIFTSVMFGTQVHSICTDETGIEQLKKEERRWAKKTKWMNMKAVFGHPFSLGWASPFATPDQGKADPYQYVV
notes: as for B1
Km [1]: 6.83 ± 0.98 µM

B8: human zDHHC14 (Homo sapiens) (protein)
chain: MPPGGGGPMKDCEYSQISTHSSSPMESPHKKKKIAARRKWEVFPGRNKFFCNGRIMMARQTGVFYLTLVLILVTSGLFFAFDCPYLAVKITPAIPAVAGILFFFVMGTLLRTSFSDPGVLPRATPDEAADLERQIDIANGTSSGGYRPPPRTKEVIINGQTVKLKYCFTCKIFRPPRASHCSLCDNCVERFDHHCPWVGNCVGKRNYRFFYMFILSLSFLTVFIFAFVITHVILRSQQTGFLNALKDSPASVLEAVVCFFSVWSIVGLSGFHTYLISSNQTTNEDIKGSWSNKRGKENYNPYSYGNIFTNCCVALCGPISPSLIDRRGYIQPDTPQPAAPSNGITMYGATQSQSDMCDQDQCIQSTKFVLQAAATPLLQSEPSLTSDELHLPGKPGLGTPCASLTLGPPTPPASMPNLAEATLADVMPRKDEHMGHQFLTPDEAPSPPRLLAAGSPLAHSRTMHVLGLASQDSLHEDSVRGLVKLSSV
notes: as for B4
Km ([3]; 2 min): 1.78 ± 0.32 µM

B9: HA-tagged mouse zDHHC5 (Mus musculus) (protein)
chain: MPAESGKRFKPSKYVPVSAAAIFLVGATTLFFAFTCPGLSLNVSPAVPIYNAIMFLFVLANFSMATFMDPGIFPRAEEDEDKEDDFRAPLYKTVEIKGIQVRMKWCATCRFYRPPRCSHCSVCDNCVEEFDHHCPWVNNCIGRRNYRYFFLFLLSLTAHIMGVFGFGLLYVLYHIEELSGVRTAVTMAVMCVAGLFFIPVAGLTGFHVVLVARGRTTNEQVTGKFRGGVNPFTNGCCNNVSRVLCSSPAPRYLGRPKKEKTIVIRPPFLRPEVSDGQITVKIMDNGIQGELRRTKSKGSLEITESQSADAEPPPPPKPDLSRYTGLRTHLSLATNEDSSLLGKDSPPTPTMYKYRPGYSSSSTSAAMPHSSSAKLSRGDSLKEPTSIADSSRHPSYRSEPSLEPESFRSPTFGKSFHFDPLSSGSRSSSLKSAQGTGFELGQLQSIRSEGTTSTSYKSLANQTRNGSLSYDSLLTPSDSPDFESVQAGPEPDPPLGYTSPFLSARLAQQREAERHPRLLPTGPPHREPSPVRYDNLSRHIVASLQEREKLLRQSPPLAGREEEPGLGDSGIQSTPGSGHAPRTSSSSDDSKRSPLSKTPLGRPAVPRFGKPDGLRSRGLGSPEPGTTAPYLGRSISYSSQKAPSGVSETEEVALQPLLTPKDEVQLKTTYSKSNGQPKSIGSASPGPGQPPLSSPTRGGVKKVSGVGGTTYEISV
notes: full length, HA tag kept (pEF-Bos-HA), overexpressed in HEK293 cells, native membrane fraction; 78 kDa band
Km [4]: 3.59 ± 0.29 µM

B10: HA-tagged mouse zDHHC5 (Mus musculus; C236S/C237S/C245S) (protein)
chain: B9 chain with C236S, C237S, C245S
notes: as for B9
Km [4]: 17.95 ± 11.12 µM

B11: human zDHHC4 (Homo sapiens) (protein)
chain: MDFLVLFLFYLASVLMGLVLICVCSKTHSLKGLARGGAQIFSCIIPECLQRAVHGLLHYLFHTRNHTFIVLHLVLQGMVYTEYTWEVFGYCQELELSLHYLLLPYLLLGVNLFFFTLTCGTNPGIITKANELLFLHVYEFDEVMFPKNVRCSTCDLRKPARSKHCSVCNWCVHRFDHHCVWVNNCIGAWNIRYFLIYVLTLTASAATVAIVSTTFLVHLVVMSDLYQETYIDDLGHLHVMDTVFLIQYLFLTFPRIVFMLGFVVVLSFLLGGYLLFVLYLAATNQTTNEWYRGDWAWCQRCPLVAWPPSAEPQVHRNIHSHGLRSNLQEIFLPAFPCHERKKQE
notes: as for B4
Km ([3]; 5 min): 9.68 ± 2.34 µM
